Measurements as given in patent US20240254223A1 (published 2024).

Target: His-tagged human CD47 (human, UniProt Q08722 19-139)
Sequence (Q08722 19-139): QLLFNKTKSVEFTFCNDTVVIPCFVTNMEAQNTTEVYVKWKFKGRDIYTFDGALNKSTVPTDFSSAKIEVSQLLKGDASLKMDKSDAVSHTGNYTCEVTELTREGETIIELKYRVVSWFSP

- Kd: 56 nM
B1: pNOVI V2K K33 (antibody, V domains shown)
VH: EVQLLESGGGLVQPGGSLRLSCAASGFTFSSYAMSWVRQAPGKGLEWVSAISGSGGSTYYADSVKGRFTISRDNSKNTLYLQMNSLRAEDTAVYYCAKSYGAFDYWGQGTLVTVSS
VL: DIQMTQSPSSLSASVGDRVTITCRASQSISSYLNWYQQKPGKAPKLLIYAASSLQSGVPSRFSGSGSGTDFTLTISSLQPEDFATYYCQQFHKRSPQKFGQGTKVEIKR
